Experimental data as given in patent publication US20200247855A1, “THERAPY AND DIAGNOSTICS” (OXFORD UNIVERSITY INNOVATION LIMITED, priority 2017, published 2020).

Tests used:
CCL2_HUMAN = CCL2_HUMAN (Homo sapiens, UniProt P13500); details: data obtained from publications [20-22,32]; cited from earlier work
CCL21_HUMAN = target: T1, CCL21_HUMAN (Homo sapiens, UniProt O00585); details: data obtained from publications [20-22,32]; read-out: Kd, CCL21_HUMAN, previously described evasins; cited from earlier work
T1 sequence (O00585 24-134): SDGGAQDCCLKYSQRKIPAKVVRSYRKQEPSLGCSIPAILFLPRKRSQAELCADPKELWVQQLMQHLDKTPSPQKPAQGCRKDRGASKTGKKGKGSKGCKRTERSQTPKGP

CCL8_HUMAN = target: T2, CCL8_HUMAN (Homo sapiens, UniProt P80075); details: Eaton, J. R. O. et al., JBC [2018], cited from earlier work
T2 sequence (P80075 24-99): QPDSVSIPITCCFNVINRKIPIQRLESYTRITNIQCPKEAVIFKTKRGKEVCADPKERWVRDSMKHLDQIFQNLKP

CCL23_HUMAN = target: T3, CCL23_HUMAN (Homo sapiens, UniProt P55773); test: Biolayer interferometry (BLI) binding
T3 sequence (P55773 22-120): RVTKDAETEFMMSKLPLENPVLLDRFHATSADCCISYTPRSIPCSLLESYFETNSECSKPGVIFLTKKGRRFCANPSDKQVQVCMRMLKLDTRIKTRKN
How it was run: (§1)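 Analyte: chemokine, screened at 300 nM then as a dose series for binders. Ligand: purified His-tagged tick evasin on Ni-NTA sensors. Kd obtained by fitting association, equilibrium and dissociation traces.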

CCL13_HUMAN = CCL13_HUMAN (Homo sapiens, UniProt Q99616); test: Biolayer interferometry (BLI) binding
How it was run: as §1

CCL4_HUMAN = target: T4, CCL4_HUMAN (Homo sapiens, UniProt P13236); test: Biolayer interferometry (BLI) binding
T4 sequence (P13236 24-92): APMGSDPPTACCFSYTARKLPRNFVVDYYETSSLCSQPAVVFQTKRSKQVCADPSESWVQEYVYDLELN
How it was run: as §1

Sequence of CCL2_HUMAN (P13500 24-99): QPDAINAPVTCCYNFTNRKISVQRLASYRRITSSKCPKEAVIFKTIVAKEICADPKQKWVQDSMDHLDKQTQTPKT
Sequence of CCL13_HUMAN (Q99616 17-98): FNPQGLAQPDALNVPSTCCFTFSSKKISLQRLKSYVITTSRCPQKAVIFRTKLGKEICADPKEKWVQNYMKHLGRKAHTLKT

B1: EVASIN4: previously described tick CKBP evasin 4, from Rhipicephalus sanguineus (protein, listed as Rhipicephalus sanguineus)
chain: EVPQMTSSSAPDLEEEDDYTAYAPLTCYFTNSTLGLLAPPNCSVLCNSTTTWFNETSPNNASCLLTVDFLTQDAILQENQPYNCSVGHCDNGTCAGPPRHAQCW
Kd, CCL2_HUMAN, previously described evasins (CCL2_HUMAN): No Binding | Kd (CCL21_HUMAN): 0.01 nM

B2: P672_RHIPU: tick CKBP, Rhipicephalus pulchellus (protein, listed as Rhipicephalus pulchellus)
chain: VCEVSEQEGVGEDNATEDEDYEDFFKPVTCYFANSTVGPLRPPNCTVVCTNNTAWWNDTKSDGGHCYSEYRPEKRTHSREIYNCTIGVCGNGTCIANHTYADCW
Residency time (RT) of P672:CCL8 interaction (CCL8_HUMAN): 27 min | Kd (CCL8_HUMAN; read-out: Kd of P672:CCL8 interaction): 8.5 nM | Kd (CCL23_HUMAN): 10 nM

B3: P1243_AMBAM: tick CKBP, Amblyomma americanum; AAM-02 stated identical (protein, listed as Amblyomma americanum)
chain: RNHTEDNSTEYYDYEEARCACPARHLNNTNGTVLKLLGCHYFCNGTLCTAPDGYPCYNLTAQQVRTLTTYPNTSCAVGVCMKGTCVKNGTMEQCFKTP
Kd (CCL13_HUMAN): 0.788 nM | Kd (CCL4_HUMAN): 15.3 nM
